Assay results as given in US9624471B2, “Methods for maturing cardiomyocytes and uses thereof” (UNIVERSITY OF WASHINGTON THROUGH ITS CENTER FOR …, priority 2013, dated 2017).

Assays:
[1] = system: RUES2-CMs; test: Immunocytochemistry (α-actinin staining) and morphological analysis of lentivirally transduced cardiomyocytes; format: cell-based, human; settings: for cell perimeter / cell area: let-7 OE CMs at roughly day 30; for cell perimeter: EV control 108±15 μm, n=50 cells per condition; for cell perimeter / cell area / sarcomere length: P<0.001; for cell area: EV control 380±70 μm^2; for Circularity index (4πArea/(perimeter)^2) / sarcomere length: let-7 OE CMs; for Circularity index (4πArea/(perimeter)^2): EV control 0.41±0.02; for sarcomere length: EV control 1.65±0.02 μm
Description: Undifferentiated human embryonic stem cell (hESCs) lines H7 (NIHhESCC-10-0061) and RUES2 (NIHhESC-09-0013) were expanded using mouse embryonic fibroblast-conditioned medium with 5 ng/ml basic fibroblast growth factor. H7-CMs were derived using previously reported protocols^1-3. RUES2-CMs were used for all functional analyses and these were derived using a cardiac progenitor cell differentiation protocol^4 derived from previously reported monolayer directed differentiation methods^1, 5, 6. In brief, this involves the induction of a monolayer of hESCs with activin A and bone morphogenetic protein-4 (BMP4) under serum- and insulin-free conditions. During the early stages of differentiation, the cells were also exposed to the Wnt agonist CHIR 99021 followed by the Wnt antagonist Xav939. From 7 days of in vitro differentiation, the cells were fed every alternate day with serum-free RPMI-B27 plus insulin media. After 20 days of in vitro differentiation, the cells were trypsinized and replated. Only those cell preparations that had at least 70% cardiac troponin T-positive CMs (as observed by flow cytometry) were used for further experiments. For experiments where the H7-CMs were cultured for around a year, the cells were replated after the 3rd and 11th month from day 0. At the 11th month, FACS analysis for cTnT was conducted and the CMs were split into three parts and were cultured as three independent replicates for another 1.5 months after which they were harvested for RNA extraction. IMR90iPSC-CMs cultured for 1 yr were replated at day 20 and split every 2 months for 12 months before harvesting for RNA extraction. To generate engineered cardiac tissue, the inventors used the procedure reported by Tulloch et al.^2 In brief, day 20 CMs are suspended in the collagen gel at 10,000/μl, and rod-shaped constructs of 25 μl (1 mm radius×8 mm length) were generated by casting in a preformed mold and warming to 37° C. The ends of the mold contain Velcro-like micro-fiber loops, and these become impregnated with gel+cell mixture. These tabs allow the constructs to be maintained under static tension, which facilitates alignment and differentiation of the CMs. The constructs were maintained in the serum-free RPMI-B27 plus glutamine media up to 2 weeks. For let-7 overexpression analysis, the CMs were transduced with the virus carrying the pLKO-let-7 or empty vector control pLKO plasmid at day 12 of the directed differentiation protocol. After overnight transduction the virus was removed, cells were rinsed with PBS and new media added. The samples were analyzed at day 30 from the initiation of differentiation.
All morphological analyses were carried out using at least 50 cells. Cells replated in chamber slides were fixed in 4% paraformaldehyde for 15 minutes followed by PBS wash. The fixed cells were blocked for an hour with 1.5% normal goat serum and incubated O/N with mouse alpha actinin (sigma) primary antibody. The primary antibody was rinsed with PBS and incubated with secondary antibody (Alexa fluor 488 [Goat anti mouse]) for an hour followed by nuclear staining using DAPI. For cell area and perimeter measurements, images were acquired and processed using ZEISS™ AXIO fluorescent microscope and AXIOVISION™ software. For sarcomere length, images were acquired and processed using LEICA™ TCS-SPE confocal microscope and LEICA™ software. These confocal images were used to select 1-2 myofibrils per cell with at least ten continuous, well-recognized alpha-actinin bands and divided the length value by the number of sarcomeres. The images were further analyzed using IMAGE J™ software.
For lenti-let-7 OE constructs, Pri-miR-let-7i and pri-miR-let-7g sequence was amplified from H7 genomic DNA using forward primer for let-7i-TCCGCGTGGTCCCGT; reverse primer for let-7i-ATTGTCCTCCGCGGCGC and forward primer for let-7g-AGAGTTCCTCCAGCGCTCC; reverse primer for let-7g-CCCCACTTGGCAGCTGGC, resulting in 153 bp and 154 bp products, respectively. […]

[2] = system: let-7 OE CMs; test: Mitochondrial DNA copy number by qPCR (mtCol normalized to GAPDH); format: cell-based, human; settings: let-7 OE vs. EV control
Excerpt: FIGS. 5A-5G Let-7 over expression results in down-regulation of PI3/AKT/Insulin pathway and up-regulation of FA metabolism. Comparisons were done between let-7OE and EV control for all assays (FIG. 5A) Density plots using R generated with fold change expression (let-7g OE/EV) of genes for FA metabolism and PI3/AKT/Insulin signaling. (FIG. 5B) qPCR analysis of candidate let-7 targets of the insulin pathway and genes from the FA metabolism. (FIG. 5C) Representative OCR profile in response to ATP synthase inhibitor oligomycin, uncoupler of electron transport and oxidative phosphorylation, FCCP and electron transport chain blockers rotenone and antimycin during mito-stress assay. (FIG. 5D) Quantification of maximal respiration capacity, i.e., changes in response to FCCP treatment after inhibition of ATP synthase by oligomycin. n=24 from 3 biological replicates. (FIG. 5E) mitochondrial DNA copy number was determined by measuring the ratio of MtDNA to genomic DNA using primers specific for mitochondrial DNA gene, Col (mtCol) and normalizing to chromosomal gene GAPDH. (FIG. 5F) Representative OCR trace of let-7g OE cardiomyocytes for fatty acid stress measuring Etomixir (ETO) responsive OCR changes after palmitate addition. (FIG. 5G) Quantification of changes in OCR in response to ETO. n=32 from 3 biological replicates. […]

Row | Molecule | cell perimeter [1] [μm] | cell area [1] [μm^2] | Circularity index (4πArea/(perimeter)^2) [1] | sarcomere length [1] [μm] | mitochondrial genome copy number [2]
1 | let-7i: human let-7 family miRNA, SEQ ID NO: 10, overexpressed from pLKO lentiviral pri-miR-let-7i construct (nucleic acid, listed as Homo sapiens) CUGGCUGAGGUAGUAGUUUGUGCUGUUGGUCGGGUUGUGACAUUGCCCGCUGUGGAGAUAACUGCGCAAGCUACUGCCUUGCUA | 300±7.4 | 1110±101 | 0.15±0.04 | 1.70±0.01 | without affecting
2 | let-7g: human let-7 family miRNA, SEQ ID NO: 9, overexpressed from pLKO lentiviral pri-miR-let-7g construct (nucleic acid, listed as Homo sapiens) AGGCUGAGGUAGUAGUUUGUACAGUUUGAGGGUCUAUGAUACCACCCGGUACAGGAGAUAACUGUACAGGCCACUGCCUUGCCA | 302±3 | 980±95 | 0.12±0.02 | 1.69±0.01 | without affecting
